Assay results published in patent US20170342169A1.

Key:
[1] = target: human mesothelin on cells (SN12C, OVCAR3, SW1990 endogenous; HEK293 transfectants) (human) (UniProt Q13421); assay: FACS, OVCAR3 cells (CA125+)
[2] = target: human mesothelin on cells (SN12C, OVCAR3, SW1990 endogenous; HEK293 transfectants) (human) (UniProt Q13421); assay: FACS, SN12C cells (CA125-)
mouse 4-1BB (mouse) = mouse 4-1BB (mouse) (UniProt P20334); assay: SPR
mouse 4-1BB (mouse), sequence (P20334 24-187): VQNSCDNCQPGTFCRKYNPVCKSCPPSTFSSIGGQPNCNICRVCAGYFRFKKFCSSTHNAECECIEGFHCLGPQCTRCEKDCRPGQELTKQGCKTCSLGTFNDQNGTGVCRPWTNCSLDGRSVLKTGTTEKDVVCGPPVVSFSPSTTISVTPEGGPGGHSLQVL

human mesothelin on cells (SN12C, OVCAR3, SW1990 endogenous; HEK293 transfectants) (human), sequence (Q13421 other isoform, or with tags, fused parts or gaps limits assumed): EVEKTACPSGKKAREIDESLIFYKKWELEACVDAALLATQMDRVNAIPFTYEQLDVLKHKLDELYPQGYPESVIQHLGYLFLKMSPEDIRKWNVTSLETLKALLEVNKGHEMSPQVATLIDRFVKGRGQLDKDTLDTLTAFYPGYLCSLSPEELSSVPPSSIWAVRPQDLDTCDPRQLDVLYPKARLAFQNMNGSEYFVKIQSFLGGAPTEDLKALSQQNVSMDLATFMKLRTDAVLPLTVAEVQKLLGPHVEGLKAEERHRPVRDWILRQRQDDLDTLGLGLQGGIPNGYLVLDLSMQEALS

Maximum binding (MFI) [1] [MFI] | Maximum binding (MFI) [2] [MFI] | Kd (mouse 4-1BB (mouse)) [nM] | koff (mouse 4-1BB (mouse)) [s⁻¹] | kon (mouse 4-1BB (mouse)) [M⁻¹ s⁻¹] | Substance
70 | 40 |  |  |  | HuIgG1 control (antibody)
 |  | 3.9 | 0.008 | 2.1e+06 | 1D8 (antibody)
